Test results: patent US20060148030A1, “Nuclear receptor err y 3” (FUJISAWA PHARMACEUTICAL CO., LTD, priority 2002, published 2006)

Target: T1, VDR (Rattus norvegicus, UniProt P13053)
T1 construct: expressed in transfected cells; host or cells: CV-1 (African green monkey kidney)
T1 sequence (P13053 1-423): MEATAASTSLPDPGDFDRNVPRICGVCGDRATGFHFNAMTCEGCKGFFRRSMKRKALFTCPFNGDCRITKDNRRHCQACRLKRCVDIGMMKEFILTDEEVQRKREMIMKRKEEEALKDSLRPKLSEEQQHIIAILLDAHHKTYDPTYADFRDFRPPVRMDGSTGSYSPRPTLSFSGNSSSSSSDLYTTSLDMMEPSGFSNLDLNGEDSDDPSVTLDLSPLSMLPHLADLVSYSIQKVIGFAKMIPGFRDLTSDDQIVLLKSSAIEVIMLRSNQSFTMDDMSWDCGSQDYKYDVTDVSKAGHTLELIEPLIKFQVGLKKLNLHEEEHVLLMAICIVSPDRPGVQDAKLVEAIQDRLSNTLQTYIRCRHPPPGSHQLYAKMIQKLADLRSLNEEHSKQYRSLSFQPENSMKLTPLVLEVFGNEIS
T1 sequence (P19793 1-462 partner): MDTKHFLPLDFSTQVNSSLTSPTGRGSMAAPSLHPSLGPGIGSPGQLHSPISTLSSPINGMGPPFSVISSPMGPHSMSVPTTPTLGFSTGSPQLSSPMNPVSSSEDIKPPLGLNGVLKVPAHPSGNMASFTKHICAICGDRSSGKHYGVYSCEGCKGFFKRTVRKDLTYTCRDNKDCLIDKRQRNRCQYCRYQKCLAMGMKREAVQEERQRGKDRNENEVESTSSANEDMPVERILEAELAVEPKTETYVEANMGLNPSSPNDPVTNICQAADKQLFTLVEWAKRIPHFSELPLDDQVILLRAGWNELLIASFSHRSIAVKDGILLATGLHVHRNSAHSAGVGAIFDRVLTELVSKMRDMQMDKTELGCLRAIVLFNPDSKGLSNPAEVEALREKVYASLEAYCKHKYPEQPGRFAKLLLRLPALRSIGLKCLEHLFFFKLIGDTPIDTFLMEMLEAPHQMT
Assay: Reporter gene assay, ERRγ3 coexisted with VDR, pGVP2-VDRE in CV-1 cells
Type: cell-based
Conditions: 5×10^−8 M calcitriol, FIG. 23
Procedure: Transfection was performed as follows: CV-1 cells were resuspended in DMEM supplemented with 10% fetal bovine serum, 2000 U/l of penicillin G, and 100 mg/l of streptomycin to a concentration of 2×10^5 cells/2.5 ml. This was then seeded to a 6-well plate at 2.5 ml per well, and incubated for 18-24 hours in a CO2 incubator at 37° C. and 5% CO2. 1 μg of each of the expression plasmids for the transcription factors, the luciferase reporter plasmid, and another luciferase reporter plasmid used for normalization of the measured values (pRL-TK), were dissolved in Opti-MEM (Gibco BRL), to a total of 150 μl. 7 μl of the transfection reagent LipofectAMINE 2000 (Gibco BRL) was diluted in 143 μl of Opti-MEM, and this was added to the mixture drop by drop while stirring. The mixture was incubated for 20 minutes. […] Luciferase activity was measured using the Dual-Luciferase™ Reporter Assay System (Promega). […] The protocol for measurement was as follows: 50 μl of Luciferase Assay Reagent II was added to each well, stirred for 0.3 seconds, and measured for one second. 50 μl of Stop&Glo™ Reagent was then added, stirred for 0.3 seconds, and measured for one second. The measured values for firefly luciferase activity were corrected by dividing by the value for the Renilla luciferase activity, the internal control. Average values and standard errors were calculated from triplicate samples. […]

B1: ERRγ3: novel ERRγ isoform, nuclear receptor protein of 396 amino acids (SEQ ID NO: 2) lacking part of the DNA binding domain (protein, listed as Homo sapiens)
chain: MSNKDRHIDSSCSSFIKTEPSSPASLTDSVNHHSPGGSSDASGSYSSTMNGHQNGLDSPPLYPSAPILGGSGPVRKLYDDCSSTIVEDPQTKCEYMLNSMPKRLCLVCGDIASGYHYGVASCEACKAFFKRTIQGVRLDRVRGGRQKYKRRIDAENSPYLNPQLAQPAKKPYNKIVSHLLVAEPEKIYAMPDPTVPDSDIKALTTLCDLADRELVVIIGWAKHIPGFSTLSLADQMSLLQSAWMEILILGVVYRSLSFEDELVYADDYIMDEDQSKLAGLLDLNNAILQLVKKYKSMKLEKEEFVTLKAIALANSDSMHIEDVEAVQKLQDVLHEALQDYEAGQHMEDPRRAGKMLMTLPLLRQTSTKAVQHFYNIKLEGKVPMHKLFLEMLEAKV
Q: B1 was tested. Which “modifying effect on the transcriptional stimulation activity of VDR” value did it give?
A: did not show a significant modifying effect
